This passage reports Kd results from patent publication US20200282021A1 (published 2020).

In test [1] the target is T1, human GLP-1 receptor (Abcam) (human, UniProt P43220 24-145).
T1 chain: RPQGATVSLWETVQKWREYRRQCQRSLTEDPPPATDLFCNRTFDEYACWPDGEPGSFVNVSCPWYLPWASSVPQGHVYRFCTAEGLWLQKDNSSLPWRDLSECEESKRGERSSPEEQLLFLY
The test can be described thus: BLI.

A further test addresses Dulaglutide. The test can be described thus: BLI. Background: BLI is a label-free optical method that tracks binding on a fibre tip over time.

B1: GLP-1(A2G)-hyFc9 (Fc fusion)
chain: HGEGTFTSDVSSYLEGQAAKEFIAWLVKGRGAKATTAPATTRNTGRGGEEKKKEKEKEEQEERETKTPECPSHTQPLGVFLFPPKPKDTLMISRTPEVTCVVVDVSQEDPEVQFNWYVDGVEVHNAKTKPREEQFNSTYRVVSVLTVLHQDWLNGKEYKCKVSNKGLPSSIEKTISKAKGQPREPQVYTLPPSQEEMTKNQVSLTCLVKGFYPSDIAVEWESNGQPENNYKTTPPVLDSDGSFFLYSRLTVDKSRWQEGNVFSCSVMHEALHNHYTQKSLSLSLGK
modifications: O-glycosylation at the IgD hinge region (positions not stated)
Turning to B1, binding in test [1] was characterised by a dissociation constant (Kd) of 45 µM.

B2: GLP-1 receptor (receptor)
chain: T1 chain
As to B2, the Kd (commonly a measure of binding affinity in units of concentration) with Dulaglutide was 0.395 µM.
